Reference: PMC10284548

Tests used:
AsLOV2(V416L) [1] = test: single-molecule force spectroscopy (dual-beam optical tweezers); jump experiments between 0 and 20.5 ± 1 pN to obtain unbinding and rebinding lifetimes; AsLOV2 and Zdk2 on one chain joined by (GGS)42; PBS, 1 mM TCEP, pH 7.4
AsLOV2 [2] = test: as above
AsLOV2(V416L) [3] = test: single-molecule force spectroscopy (dual-beam optical tweezers); constant velocity (force-extension) experiments, 200 and 500 nm/s; AsLOV2 and Zdk2 on one chain joined by (GGS)42, tethered by DNA handles between two beads; PBS, 1 mM TCEP, pH 7.4, oxygen scavenger; dark
AsLOV2 [4] = test: as above
AsLOV2 [5] = test: single-molecule force spectroscopy (dual-beam optical tweezers); constant load of 11 or 16 pN, dark; AsLOV2 and Zdk2 on one chain joined by (GGS)42, tethered by DNA handles between two beads; PBS, 1 mM TCEP, pH 7.4
AsLOV2 [6] = test: single-molecule force spectroscopy (dual-beam optical tweezers); constant load of 11 or 16 pN under 488-nm light (laser intensity 3 and 30%, pooled); AsLOV2 and Zdk2 on one chain joined by (GGS)42; PBS, 1 mM TCEP, pH 7.4

- average lifetime of the peptide-bound state under force (AsLOV2(V416L) [1]): 0.18 s
- rebinding time at zero force (AsLOV2(V416L) [1]): 0.44 s
- average lifetime of the peptide-bound state under force (AsLOV2 [2]): 0.56 s
- rebinding time at zero force (AsLOV2 [2]): 0.13 s
- unbinding force (AsLOV2(V416L) [3]): 22 pN
- unbinding force (AsLOV2 [4]): 24 pN
- average lifetime of the bound state at 11 pN, without light (AsLOV2 [5]): 174 s
- average lifetime of the bound state at 16 pN, without light (AsLOV2 [5]): 74 s
- percent of experiments at 11 pN without dissociation within 9 min (AsLOV2 [5]): 30%
- average lifetime of the bound state at 11 pN, with 488-nm light (AsLOV2 [6]): 47 s
- average lifetime of the bound state at 16 pN, with 488-nm light (AsLOV2 [6]): 45 s
Substance: Zdk2 (designed binder)
